In paper PMC9262582:

Target: Rum pol (RumA′2B), His-tagged on RumB (integrative conjugative element R391)

Substance: S. aureus RecA (from UniProt A5ISG9 1-347) (natural protein)
- primer extension (% PE) by Rum Mut-Sa transactivated with Sa RecA*: 4 % PE
